{"source": "patent US20260139049A1", "about": "(PEDIATRIC IMMUNITY AND HEALTHCARE GUANGZHOU BIOTECHNOLOGY, published 2026)", "binders": {"B1": {"name": "51C10-M3 (antibody, human IgG1, kappa, V domains shown)", "VH": "EVQLQQSGPELVKPGASVKMSCKASGYTFTDYNMHWVKKSHGKSLEWIGYVNPNNGATSYNQKFKGKATLTVNKSSSTAYMELRSLTSEDSAVYNCARWDAYVYYYGLDYWGQGTSVTVSS", "VL": "DIQMTQSSSYLSVSLGGRVTITCKASDHINNWLAWYQQKPGNAPRLLISGATSLETGVPSRFSGSGSGKDYTLSITSLQTEDVATYYCQQYWSTPYTFGGGTKLEIKR", "notes": "51C10H4 with G of DG in heavy-chain CDR3 changed to A; also called improved antibody 51C10-M3"}, "B2": {"name": "PiH1004 (antibody, human IgG1, kappa, V domains shown)", "VH": "QVQLVQSGAEVKKPGASVKVSCKASGYTFTDYNMHWVRQAPGQSLEWIGYVNPNNGATSYNQKFKGRATMTVDKSTSTVYMELSSLRSEDTAVYNCARWDGYVYYYGLDYWGQGTLVTVSS", "VL": "DIQMTQSPSSLSASVGDRVTITCKASDHINNWLAWYQQKPGKVPKLLISGATSLETGVPSRFSGSGSGTDYTLTISSLQPEDVATYYCQQYWSTPYTFGGGTKLEIKR", "notes": "humanized from 51C10H4; IgG1; also called 51-VH4 + VL3"}, "B3": {"name": "PiH2006 (antibody, human IgG1, kappa, V domains shown)", "VH": "B2 VH with S44R, V51I, S59N, A68V, M70I, K74T, T76A, V79A, L108M", "VL": "B2 VL with D17G, V43A, L73F, V83I, S93N", "notes": "humanized from 54B5A7; IgG1; also called 54-VH2 + VL4"}, "B4": {"name": "PiH1004-M1 (antibody, human IgG1, kappa, V domains shown)", "VH": "B2 VH with G56A", "VL": "B2 VL", "notes": "PiH1004 with G of NG in heavy-chain CDR2 changed to A; also called improved antibody PiH1004-M1"}, "B5": {"name": "PiH2007 (antibody, human IgG1, kappa, V domains shown)", "VH": "B2 VH with V51I, S59N, M70I, K74T, T76A, V79A, L108M", "VL": "B2 VL with D17G, V43A, L73F, V83I, S93N", "notes": "humanized from 54B5A7; IgG1; also called 54-VH3 + VL4"}, "B6": {"name": "15H2D4 (antibody, human IgG1, kappa, V domains shown)", "VH": "QAYLQQSGAELVRSGASVKMSCKASGYTFTSYNIHWVKQTPGQGLEWIGYIYPGNGGTKYNERFKGKATLTADASSSTAYMQISSLTSEDSAVYFCARWRYYDRPTHYAMDYWGQGTSVTVSS", "VL": "DIVVTQSPASLAVSLGQRATISCRASKSVSTSGFSYLHWFQQKPGQPPKLLIYLASNLESGVPARFSGSGSGTDFTLNIHPVEEEDVAVYYCQHSREFPFTFGSGTKLEIKR", "notes": "chimeric: murine variable regions on human IgG1 constant regions"}}, "key": {"[1]": {"biological_target": "T1, human CLDN6 (human, UniProt P56747 1-220)", "T1 construct": "whole, on cells; four-transmembrane protein; also called claudin-6; HEK293T-CLDN6", "T1 sequence (looked up)": "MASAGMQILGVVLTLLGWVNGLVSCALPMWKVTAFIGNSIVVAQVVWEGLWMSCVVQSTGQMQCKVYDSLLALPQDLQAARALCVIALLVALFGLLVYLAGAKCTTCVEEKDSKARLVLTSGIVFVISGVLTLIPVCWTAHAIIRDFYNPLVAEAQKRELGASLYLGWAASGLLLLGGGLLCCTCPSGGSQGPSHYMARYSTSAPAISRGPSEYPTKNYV", "assay": "binding to CLDN6-expressing cells; method not given"}, "[2]": {"biological_target": "T1, human CLDN6", "assay": "FACS on HepG2 tumour cells, 5 µg/mL; target on the cells taken as CLDN6", "experimental": "(§1) 50 μL of an antibody to be tested was added to a 96-well plate, then 1×10⁵ cells were added to each well, and incubation was conducted at 4° C. for 1 h. Cells were washed three times with PBS. […] Finally, cells were washed three times with PBS, and signals were read using FACS. A binding capacity of the antibody to each tumor cell was analyzed based on detection data."}, "[3]": {"biological_target": "T1, human CLDN6", "assay": "FACS on PA-1 tumour cells; target on the cells taken as CLDN6", "experimental": "as §1"}, "[4]": {"biological_target": "T1, human CLDN6", "assay": "FACS on HepG2 tumour cells; target on the cells taken as CLDN6", "experimental": "as §1"}, "[5]": {"biological_target": "T1, human CLDN6", "assay": "FACS on HEK293T-CLDN6 cells", "experimental": "(§2) To detect a binding capacity of a chimeric or humanized antibody to CLDN6, a CLDN6-expressing cell line HEK293T-CLDN6 and a CLDN6-negative control cell line HEK293T were washed three times with PBS. 1×10⁵ test cells and 50 μL of an antibody solution to be tested were added to a 96-well plate, and incubated at 4° C. for 1 h. The cells were then washed three times with PBS. […] Finally, cells were washed three times with PBS, and signals were read using FACS.\n(§3) An EC50 value (a concentration of an antibody that binds to half of binding sites at equilibrium) is calculated through nonlinear regression."}, "[6]": {"biological_target": "T1, human CLDN6", "assay": "FACS on HepG2 tumour cells; target on the cells taken as CLDN6", "experimental": "as §1", "remark": "listed apart in the source"}, "[7]": {"biological_target": "T1, human CLDN6", "assay": "FACS on HEK293T-CLDN6 cells", "experimental": "as §2, §3", "remark": "listed apart in the source"}, "[8]": {"biological_target": "T1, human CLDN6", "assay": "FACS on PA-1 tumour cells; target on the cells taken as CLDN6", "experimental": "as §1", "remark": "listed apart in the source"}, "[9]": {"biological_target": "T1, human CLDN6", "assay": "FACS on 293T-CLDN6 cells, 10 µg/mL"}, "[10]": {"biological_target": "T1, human CLDN6", "assay": "FACS on HepG2 tumour cells; target on the cells taken as CLDN6", "experimental": "(§4) The specific binding of a chimeric antibody to a tumor cell was detected by FACS, and an EC50 value was calculated accordingly to evaluate an inhibitory effect of the chimeric antibody on the tumor cell.\nas §1", "remark": "listed apart in the source"}, "[11]": {"biological_target": "T2, mouse CLDN6 (mouse, UniProt Q9Z262 1-219)", "T2 construct": "whole, on cells; also called CHO-K1-Mouse CLDN6", "T2 sequence (looked up)": "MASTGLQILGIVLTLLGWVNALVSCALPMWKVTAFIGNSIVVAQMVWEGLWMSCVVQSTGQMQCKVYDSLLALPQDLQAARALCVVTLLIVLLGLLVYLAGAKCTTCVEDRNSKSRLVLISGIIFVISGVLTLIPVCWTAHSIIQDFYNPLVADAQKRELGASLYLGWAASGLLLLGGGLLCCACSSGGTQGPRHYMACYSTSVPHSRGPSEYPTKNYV", "assay": "FACS on CHO-K1-Mouse CLDN6 cells"}, "[12]": {"biological_target": "T1, human CLDN6", "assay": "FACS on HEK293T-CLDN6 cells", "experimental": "as §2, §3", "remark": "listed apart in the source"}, "[13]": {"biological_target": "T3, human CLDN3 (human, UniProt O15551 1-220)", "T3 construct": "whole, on cells; also called HEK293T-CLDN3", "T3 sequence (looked up)": "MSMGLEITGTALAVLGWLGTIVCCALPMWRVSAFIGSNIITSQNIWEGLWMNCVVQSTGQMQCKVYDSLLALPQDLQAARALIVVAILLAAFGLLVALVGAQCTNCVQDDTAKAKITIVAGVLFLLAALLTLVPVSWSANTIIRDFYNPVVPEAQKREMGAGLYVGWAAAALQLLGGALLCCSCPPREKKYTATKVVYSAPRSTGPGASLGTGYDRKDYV", "assay": "FACS on 293T-CLDN3 cells, 10 µg/mL", "experimental": "as §1, with “1× 10⁵” for “1×10⁵”, “Binding capacities” for “A binding capacity”, “CLDN9, CLDN3, and CLDN4 were” for “each tumor cell was”, “analyzed separately” for “analyzed”"}, "[14]": {"biological_target": "T4, monkey CLDN6 (Cyno CLDN6) (monkey (Cyno))", "T4 construct": "whole, on cells; also called CHO-K1-Cyno CLDN6", "assay": "FACS on CHO-K1-Cyno CLDN6 cells"}, "[15]": {"biological_target": "T5, human CLDN4 (human, UniProt O14493 1-209)", "T5 construct": "whole, on cells; also called HEK293T-CLDN4", "T5 sequence (looked up)": "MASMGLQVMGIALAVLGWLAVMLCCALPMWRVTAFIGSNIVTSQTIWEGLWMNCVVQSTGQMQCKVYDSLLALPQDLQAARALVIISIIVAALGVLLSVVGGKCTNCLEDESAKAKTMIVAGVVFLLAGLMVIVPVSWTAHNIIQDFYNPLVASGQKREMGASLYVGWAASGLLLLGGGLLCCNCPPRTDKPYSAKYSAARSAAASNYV", "assay": "FACS on 293T-CLDN4 cells, 10 µg/mL", "experimental": "as §1, with “1× 10⁵” for “1×10⁵”, “Binding capacities” for “A binding capacity”, “CLDN9, CLDN3, and CLDN4 were” for “each tumor cell was”, “analyzed separately” for “analyzed”"}, "[16]": {"biological_target": "T1, human CLDN6", "assay": "FACS on PA-1 tumour cells; target on the cells taken as CLDN6", "experimental": "as §4, §1", "remark": "listed apart in the source"}, "[17]": {"biological_target": "T1, human CLDN6", "assay": "ratio of FACS Geom.Mean on 293T-CLDN6 over 293T-CLDN9, 10 µg/mL", "experimental": "as §1, with “1× 10⁵” for “1×10⁵”, “Binding capacities” for “A binding capacity”, “CLDN9, CLDN3, and CLDN4 were” for “each tumor cell was”, “analyzed separately” for “analyzed”"}, "[18]": {"biological_target": "T6, human CLDN9 (human, UniProt O95484 1-217)", "T6 construct": "whole, on cells; also called HEK293T-CLDN9", "T6 sequence (looked up)": "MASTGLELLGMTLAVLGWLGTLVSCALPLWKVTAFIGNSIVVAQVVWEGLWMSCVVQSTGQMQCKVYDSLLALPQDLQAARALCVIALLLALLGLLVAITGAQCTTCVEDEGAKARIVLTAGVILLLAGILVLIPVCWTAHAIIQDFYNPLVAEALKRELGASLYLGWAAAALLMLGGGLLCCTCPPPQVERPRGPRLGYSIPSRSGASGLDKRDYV", "assay": "FACS on 293T-CLDN9 cells, 10 µg/mL", "experimental": "as §1, with “1× 10⁵” for “1×10⁵”, “Binding capacities” for “A binding capacity”, “CLDN9, CLDN3, and CLDN4 were” for “each tumor cell was”, “analyzed separately” for “analyzed”"}}, "note": "Numbering of substitutions follows the chain as printed."}
{"binder": "B1", "values": [{"measurement": "binding result", "setting": "[1]", "result": "binds"}]}
{"binder": "B2", "values": [{"measurement": "Geom.Mean", "setting": "[2]", "result": 851}, {"measurement": "EC50", "setting": "[3]", "result": 0.491, "unit": "µg/mL"}, {"measurement": "EC50", "setting": "[4]", "result": 0.843, "unit": "µg/mL"}, {"measurement": "EC50", "setting": "[5]", "result": 0.363, "unit": "µg/mL"}]}
{"binder": "B3", "values": [{"measurement": "EC50", "setting": "[6]", "result": 5.84, "unit": "µg/mL"}]}
{"binder": "B4", "values": [{"measurement": "Geom.Mean", "setting": "[2]", "result": 892}]}
{"binder": "B5", "values": [{"measurement": "EC50", "setting": "[7]", "result": 0.897, "unit": "µg/mL"}, {"measurement": "EC50", "setting": "[8]", "result": 1.17, "unit": "µg/mL"}]}
{"binder": "B6", "values": [{"measurement": "Geom.Mean", "setting": "[9]", "result": 40800}, {"measurement": "EC50", "setting": "[10]", "result": 0.481, "unit": "µg/mL"}, {"measurement": "EC50", "setting": "[11]", "result": 0.117, "unit": "µg/mL"}, {"measurement": "EC50", "setting": "[12]", "result": 0.274, "unit": "µg/mL"}, {"measurement": "Geom.Mean", "setting": "[13]", "result": 139}, {"measurement": "EC50", "setting": "[14]", "result": 0.351, "unit": "µg/mL"}, {"measurement": "Geom.Mean", "setting": "[15]", "result": 5280}, {"measurement": "EC50", "setting": "[16]", "result": 0.137, "unit": "µg/mL"}, {"measurement": "CLDN6/CLDN9 ratio", "setting": "[17]", "result": 462}, {"measurement": "Geom.Mean", "setting": "[18]", "result": 88.4}]}
